Reference: PMC11300603

Assays:
[1] = molecular target: CpaF from C. crescentus (C. crescentus NA1000); assay: cryo-EM structure; 5 mg/mL CpaF without nucleotide addition, in the presence of Mg2+, 8 mM CHAPSO; single particle, C2 symmetry
[2] = molecular target: CpaF from C. crescentus (C. crescentus NA1000); assay: cryo-EM structure; 5 mg/mL CpaF with 4 mM ADP, 5 mM MgSO4 in total, 8 mM CHAPSO, 45 min at room temperature before vitrification; single particle, C2 symmetry
[3] = molecular target: CpaF from C. crescentus (C. crescentus NA1000); assay: cryo-EM structure; 5 mg/mL CpaF with 4 mM AMPPNP, 5 mM MgSO4 in total, 8 mM CHAPSO, 45 min at room temperature before vitrification; single particle, C2 symmetry

Measured: stoichiometry N

CpaF from C. crescentus (enzyme)
6: all assays above
